Source: PMC4705439 (Kidney international, 2016)

What was measured:
[1] = biological target: the molecule itself; experiment: non-reducing SDS-PAGE with immunoblot
[2] = biological target: T1, Peroxiredoxin 6 (PRDX6), native, human kidney (human (endogenous in human kidney)), P30041; experiment: non-reducing SDS-PAGE with immunoblot; conditions: remark: other sources report otherwise
T1 chain: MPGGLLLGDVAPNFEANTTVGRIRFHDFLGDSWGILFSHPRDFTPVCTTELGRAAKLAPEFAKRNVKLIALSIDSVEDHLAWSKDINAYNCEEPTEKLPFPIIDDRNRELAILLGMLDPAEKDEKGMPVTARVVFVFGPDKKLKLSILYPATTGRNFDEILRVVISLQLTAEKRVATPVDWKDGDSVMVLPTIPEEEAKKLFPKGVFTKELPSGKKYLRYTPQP

[3] = biological target: the molecule itself; experiment: non-reducing SDS-PAGE with Coomassie stain

B1: Peroxiredoxin 6 (PRDX6), native, mouse kidney (natural protein, mouse (endogenous in mouse kidney), UniProt O08709 1-224, looked up)
chain: MPGGLLLGDEAPNFEANTTIGRIRFHDFLGDSWGILFSHPRDFTPVCTTELGRAAKLAPEFAKRNVKLIALSIDSVEDHLAWSKDINAYNGETPTEKLPFPIIDDKGRDLAILLGMLDPVEKDDNNMPVTARVVFIFGPDKKLKLSILYPATTGRNFDEILRVVDSLQLTGTKPVATPVDWKKGESVMVVPTLSEEEAKQCFPKGVFTKELPSGKKYLRYTPQP
Q: How did the “stoichiometry N” value [1] turn out when B1 was run?
A: Its value is 2.

B2: Peroxiredoxin 6 (PRDX6), native, human kidney, P30041 1-224 (natural protein)
chain: MPGGLLLGDVAPNFEANTTVGRIRFHDFLGDSWGILFSHPRDFTPVCTTELGRAAKLAPEFAKRNVKLIALSIDSVEDHLAWSKDINAYNCEEPTEKLPFPIIDDRNRELAILLGMLDPAEKDEKGMPVTARVVFVFGPDKKLKLSILYPATTGRNFDEILRVVISLQLTAEKRVATPVDWKDGDSVMVLPTIPEEEAKKLFPKGVFTKELPSGKKYLRYTPQP
Q: With B2 as the binder, how does the stoichiometry N [2] read?
A: Its stoichiometry N is 2.

B3: N-terminal histidine-tagged PRDX6 with cysteine 47 changed to alanine (HisPRDX6-C47A) (natural protein, UniProt P30041 1-224, looked up)
chain: MPGGLLLGDVAPNFEANTTVGRIRFHDFLGDSWGILFSHPRDFTPVATTELGRAAKLAPEFAKRNVKLIALSIDSVEDHLAWSKDINAYNCEEPTEKLPFPIIDDRNRELAILLGMLDPAEKDEKGMPVTARVVFVFGPDKKLKLSILYPATTGRNFDEILRVVISLQLTAEKRVATPVDWKDGDSVMVLPTIPEEEAKKLFPKGVFTKELPSGKKYLRYTPQP
Q: With B3 as the binder, how does the “stoichiometry N” value [3] read?
A: The value was 2.
